Results reported in patent US7588931B2, “High arachidonic acid producing strains of Yarrowia lipolytica” (E. I. du Pont de Nemours and Company, priority 2004, dated 2009).

Tested on: Yarrowia lipolytica
Assay: Percent substrate conversion of desaturases and elongases expressed in Yarrowia lipolytica
Format: cell-based
Details: for percent (%) substrate conversion of the codon-optimized gene: transformants of strain Y2031, MM, 2 days; for Codon-Opt. Gene % Sub. Conv. / Native Gene % Sub. Conv.: percent substrate conversion; for Codon-Opt. Gene % Sub. Conv.: codon-optimized gene expressed in Y. lipolytica; for Native Gene % Sub. Conv.: expressed in Y. lipolytica
Experimental: The terms “conversion efficiency” and “percent substrate conversion” refer to the efficiency by which a particular enzyme (e.g., a desaturase or elongase) can convert substrate to product. The conversion efficiency is measured according to the following formula: ([product]/[substrate+product])*100, where ‘product’ includes the immediate product and all products in the pathway derived from it.
With respect to Δ12 desaturase, Applicants have made the surprising discovery that the Fusarium moniliforme Δ12 desaturase (encoded by SEQ ID NO:27) functions with greater efficiency than the native Yarrowia lipolytica Δ12 desaturase in producing 18:2 in Y. lipolytica (see WO 2005/047485). Specifically, expression of the F. moniliforme Δ12 desaturase under the control of the TEF promoter in Y. lipolytica was determined to produce higher levels of 18:2 (68% product accumulation of LA) than were previously attainable by expression of a chimeric gene encoding the Y. lipolytica Δ12 desaturase under the control of the TEF promoter (59% product accumulation of LA). This corresponds to a difference in percent substrate conversion (calculated as ([18:2+18:3]/[18:1+18:2+18:3])*100) of 85% versus 74%, respectively.
In the present invention, several desaturase and elongase genes from Table 5 were codon-optimized for expression in Yarrowia lipolytica, based on the host preferences described above. This was possible by first determining the Y. lipolytica codon usage profile (see WO 04/101757) and identifying those codons that were preferred. Then, for further optimization of gene expression in Y. lipolytica, the consensus sequence around the ‘ATG’ initiation codon was determined (i.e., ‘MAMMATGNHS’ (SEQ ID NO:356), wherein the nucleic acid degeneracy code used is as follows: M=A/C; S═C/G; H=A/C/T; and N=A/C/G/T). Table 7, below, compares the activity of native and codon-optimized genes when expressed in Y. lipolytica and provides details about each codon-optimized gene. % Sub. Conv. is the abbeviation for “percent substrate conversion” and Codon-Opt. is an abbreviation for “codon-optimized”.
Construct pDMW237 (FIG. 8C), an auto-replication plasmid comprising a chimeric FBAIN::1 g D9e::Pex20 gene, was transformed into Y. lipolytica Y2031 strain (Example 4) as described in the General Methods. Three transformants of Y2031 with pDMW237 were grown individually in MM media for two days and the cells were collected by centrifugation, lipids were extracted, and fatty acid methyl esters were prepared by trans-esterification, and subsequently analyzed with a Hewlett-Packard 6890 GC.
Construct pDMW297 was then used for transformation of strain Y2031 (Example 5) according to the General Methods. The transformant cells were plated onto MM selection media plates and maintained at 30° C. for 2 to 3 days. A total of 8 transformants grown on the MM plates were picked and re-streaked onto fresh MM plates. Once grown, these strains were individually inoculated into liquid MM at 30° C. and shaken at 250 rpm/min for 2 days. The cells were collected by centrifugation, lipids were extracted, and fatty acid methyl esters were prepared by trans-esterification, and subsequently analyzed with a Hewlett-Packard 6890 GC.

[1] = under the control of the TEF promoter in Y. lipolytica

| Molecule | Codon-Opt. Gene % Sub. Conv. [%] | Native Gene % Sub. Conv. [%] | further results |
| --- | --- | --- | --- |
| D8SF: completely corrected synthetic codon-optimized Δ8 desaturase gene, SEQ ID NO:48 (protein, D8SF: synthetic delta-8 desaturase (codon-optimized for Yarrowia lipolytica)) MVKSKRQALPLTIDGTTYDVSAWVNFHPGGAEIIENYQGRDATDAFMVMHSQEAFDKLKRMPKINPSSELPPQAAVNEAQEDFRKLREELIATGMFDASPLWYSYKISTTLGLGVLGYFLMVQYQMYFIGAVLLGMHYQQMGWLSHDICHHQTFKNRNWNNLVGLVFGNGLQGFSVTWWKDRHNAHHSATNVQGHDPDIDNLPLLAWSEDDVTRASPISRKLIQFQQYYFLVICILLRFIWCFQSVLTVRSLKDRDNQFYRSQYKKEAIGLALHWTLKTLFHLFFMPSILTSLLVFFVSELVGGFGIAIVVFMNHYPLEKIGDSVWDGHGFSVGQIHETMNIRRGIITDWFFGGLNYQIEHHLWPTLPRHNLTAVSYQVEQLCQKHNLPYRNPLPHEGLVILLRYLAVFARMAEKQPAGKAL | – | – | percent (%) substrate conversion of the codon-optimized gene: 75% |
| M. alpina high affinity C18/20 elongase: GenBank AX464731; codon-optimized gene SEQ ID NO:19 (protein, listed as Mortierella alpina, misc_feature: synthetic elongase 1 (codon-optimized)) MESIAPFLPSKMPQDLFMDLASAIGVRAAPYVDPLEAALVAQAEKYIPTIVHHTRGFLVAVESPLARELPLMNPFHVLLIVLAYLVTVFVGMQIMKNFERFEVKTFSLLHNFCLVSISAYMCGGILYEAYQANYGLFENAADHTFKGLPMAKMIWLFYFSKIMEFVDTMIMVLKKNNRQISFLHVYHHSSIFTIWWLVTFVAPNGEAYFSAALNSFIHVIMYGYYFLSALGFKQVSFIKFYITRSQMTQFCMMSVQSSWDMYAMKVLGRPGYPFFITALLWFYMWTMLGLFYNFYRKNAKLAKQAKADAAKEKARKLQ | 47 | 30 | – |
| T. aureum C18/20 elongase: codon-optimized gene SEQ ID NO:22 (protein, listed as Thraustochytrium aureum, misc_feature: synthetic elongase (codon-optimized)) MANSSVWDDVVGRVETGVDQWMDGAKPYALTDGLPMMDVSTMLAFEVGYMAMLLFGIPIMKQMEKPFELKTIKLLHNLFLFGLSLYMCVETIRQAILGGYKVFGNDMEKGNESHAQGMSRIVYVFYVSKAYEFLDTAIMILCKKFNQVSFLHVYHHATIFAIWWAIAKYAPGGDAYFSVILNSFVHTVMYAYYFFSSQGFGFVKPIKPYITTLQMTQFMAMLVQSLYDYLFPCDYPQALVQLLGVYMITLLALFGNFFVQSYLKKPKKSKTN | 46 | 33 | – |
| M. alpina Δ6 desaturase: GenBank AF465281; codon-optimized gene SEQ ID NO:3 (protein, listed as Mortierella alpina, misc_feature: synthetic delta-6 desaturase (codon-optimized)) MAAAPSVRTFTRAEVLNAEALNEGKKDAEAPFLMIIDNKVYDVREFVPDHPGGSVILTHVGKDGTDVFDTFHPEAAWETLANFYVGDIDESDRDIKNDDFAAEVRKLRTLFQSLGYYDSSKAYYAFKVSFNLCIWGLSTVIVAKWGQTSTLANVLSAALLGLFWQQCGWLAHDFLHHQVFQDRFWGDLFGAFLGGVCQGFSSSWWKDKHNTHHAAPNVHGEDPDIDTHPLLTWSEHALEMFSDVPDEELTRMWSRFMVLNQTWFYFPILSFARLSWCLQSILFVLPNGQAHKPSGARVPISLVEQLSLAMHWTWYLATMFLFIKDPVNMLVYFLVSQAVCGNLLAIVFSLNHNGMPVISKEEAVDMDFFTKQIITGRDVHPGLFANWFTGGLNYQIEHHLFPSMPRHNFSKIQPAVETLCKKYNVRYHTTGMIEGTAEVFSRLNEVSKATSKMGKAQ | 42 | 30 | – |
| S. diclina Δ17 desaturase: US 2003/0196217 A1; codon-optimized gene SEQ ID NO:16 (protein, listed as Saprolegnia diclina, misc_feature: synthetic delta-17 desaturase (codon-optimized)) MAEDKTKVEFPTLTELKHSIPNACFESNLGLSLYYTARAIFNASASAALLYAARSTPFIADNVLLHALVCATYIYVQGVIFWGFFTVGHDCGHSAFSRYHSVNFIIGCIMHSAILTPFESWRVTHRHHHKNTGNIDKDEIFYPHRSVKDLQDVRQWVYTLGGAWFVYLKVGYAPRTMSHFDPWDPLLLRRASAVIVSLGVWAAFFAAYAYLTYSLGFAVMGLYYYAPLFVFASFLVITTFLHHNDEATPWYGDSEWTYVKGNLSSVDRSYGAFVDNLSHHIGTHQVHHLFPIIPHYKLNEATKHFAAAYPHLVRRNDEPIITAFFKTAHLFVNYGAVPETAQIFTLKESAAAAKAKSD | 45 | 23 | – |
| Y. lipolytica Δ12 desaturase: native Yarrowia lipolytica Δ12 desaturase, SEQ ID NOs:23 and 24 (protein, listed as Yarrowia lipolytica) MDSTTQTNTGTGKVAVQPPTAFIKPIEKVSEPVYDTFGNEFTPPDYSIKDILDAIPQECYKRSYVKSYSYVARDCFFIAVFAYMAYAYLPLIPSASGRAVAWAMYSIVQGLFGTGLWVLAHECGHSAFSDSNTVNNVTGWVLHSSMLVPYYAWKLTHSMHHKSTGHLTRDMVFVPKDRKEFMENRGAHDWSELAEDAPLMTLYGLITQQVFGWPLYLLSYVTGQKYPKLNKWAVNHFNPNAPLFEKKDWFNIWISNVGIGITMSVIAYSINRWGLASVTLYYLIPYLWVNHWLVAITYLQHTDPTLPHYHADQWNFTRGAAATIDREFGFIGSFCFHDIIETHVLHHYVSRIPFYNARIATEKIKKVMGKHYRHDDTNFIKSLYTVARTCQFVEGKEGIQMFRNVNGVGVAPDGLPSKK | – | – | percent substrate conversion (calculated as ([18:2+18:3]/[18:1+18:2+18:3])*100) [1]: 74%; product accumulation of LA [1]: 59% |
| IgD9e: synthetic codon-optimized Δ9 elongase gene, SEQ ID NO:41 (protein, IgD9e: synthetic delta-9 elongase (codon-optimized for Yarrowia lipolytica)) MALANDAGERIWAAVTDPEILIGTFSYLLLKPLLRNSGLVDEKKGAYRTSMIWYNVLLALFSALSFYVTATALGWDYGTGAWLRRQTGDTPQPLFQCPSPVWDSKLFTWTAKAFYYSKYVEYLDTAWLVLKGKRVSFLQAFHHFGAPWDVYLGIRLHNEGVWIFMFFNSFIHTIMYTYYGLTAAGYKFKAKPLITAMQICQFVGGFLLVWDYINVPCFNSDKGKLFSWAFNYAYVGSVFLLFCHFFYQDNLATKKSAKAGKQL | – | – | percent (%) substrate conversion of the codon-optimized gene: about 13% |
| Isochrysis galbana Δ9 elongase: codon-optimized gene SEQ ID NO:41 (protein, IgD9e: synthetic delta-9 elongase (codon-optimized for Yarrowia lipolytica)) MALANDAGERIWAAVTDPEILIGTFSYLLLKPLLRNSGLVDEKKGAYRTSMIWYNVLLALFSALSFYVTATALGWDYGTGAWLRRQTGDTPQPLFQCPSPVWDSKLFTWTAKAFYYSKYVEYLDTAWLVLKGKRVSFLQAFHHFGAPWDVYLGIRLHNEGVWIFMFFNSFIHTIMYTYYGLTAAGYKFKAKPLITAMQICQFVGGFLLVWDYINVPCFNSDKGKLFSWAFNYAYVGSVFLLFCHFFYQDNLATKKSAKAGKQL | 30 | – | – |
| Isochrysis galbana Δ5 desaturase: codon-optimized gene SEQ ID NO:10 (protein, listed as Isochrysis galbana, misc_feature: synthetic delta-5 desaturase (codon-optimized)) MVAGKSGAAAHVTHSSTLPREYHGATNDSRSEAADVTVSSIDAEKEMIINGRVYDVSSFVKRHPGGSVIKFQLGADASDAYNNFHVRSKKADKMLYSLPSRPAEAGYAQDDISRDFEKLRLELKEEGYFEPNLVHVSYRCVEVLAMYWAGVQLIWSGYWFLGAIVAGIAQGRCGWLQHEGGHYSLTGNIKIDRHLQMAIYGLGCGMSGCYWRNQHNKHHATPQKLGTDPDLQTMPLVAFHKIVGAKARGKGKAWLAWQAPLFFGGIICSLVSFGWQFVLHPNHALRVHNHLELAYMGLRYVLWHLAFGHLGLLSSLRLYAFYVAVGGTYIFTNFAVSHTHKDVVPPTKHISWALYSANHTTNCSDSPFVNWWMAYLNFQIEHHLFPSMPQYNHPKIAPRVRALFEKHGVEYDVRPYLECFRVTYVNLLAVGNPEHSYHEHTH | 32 | 7 | – |
